Laboratory results published in patent US20080076129A1, “Method of Detecting an Increased Susceptibility to Breast Cancer” (priority 2000, published 2008).

B1: Wild type: purified recombinant His-tagged CYP1B1 with 48Arg, 119Ala, 432Val, 453Asn (protein)
chain: HHHHHHLLSVLATVHVGQRLLRQRRRQLRSAPPGPFAWPLIGNAAAVGQAAHLSFARLARRYGDVFQIRLGSCPIVVLNGERAIHQALVQQGSAFADRPAFASFRVVSGGRSMAFGHYSEHWKVQRRAAHSMMRNFFTRQPRSRQVLEGHVLSEARELVALLVRGSADGAFLDPRPLTVVAVANVMSAVCFGCRYSHDDPEFRELLSHNEEFGRTVGAGSLVDVMPWLQYFPNPVRTVFREFEQLNRNFSNFILDKFLRHCESLRPGAAPRDMMDAFILSAEKKAAGDSHGGGARLDLENVPATITDIFGASQDTLSTALQWLLLLFTRYPDVQTRVQAELDQVVGRDRLPCMGDQPNLPYVLAFLYEAMRFSSFVPVTIPHATTANTSVLGYHIPKDTVVFVNQWSVNHDPLKWPNPENFDPARFLDKDGLINKDLTSRVMIFSVGKRRCIGEELSKMQLFLFISILAHQCDFRANPNEPAKMNFSYGLTIKPKSFKVNVTLRESMELLDSAVQNLQAKETCQ

What was measured:
[1] = test system: DNA; conditions: cited from earlier work
[2] = test system: CYP1B1; assay: Assay of CYP1B1 E2 hydroxylation activity; format: biochemical, human; conditions: for 2-OH-Estradiol kcat: E2 2-hydroxylation; for 4-OH-Estradiol kcat: E2 4-hydroxylation; for 16a-OH-Esrradiol kcat: E2 16α-hydroxylation
Protocol: (§1) Assay of CYP1B1 E2 Hydroxylation Activity. Purified CYP1B1 (200 pmol) was reconstituted with a 2-fold molar amount of recombinant rat NADPH-P450 reductase (400 pmol), purified as previously described, and 60 μg of L-α-dilauroyl-sn-glycero-3-phosphocholine in the presence of sodium cholate (0.005%, w/v) in 0.4 ml of 100 mM potassium phosphate buffer, pH 7.4, containing varying concentrations of E2 (2, 3, 6, 9, 12, 15, 20, 40, 60, 80, and 100 μM) and 1 mM ascorbate. An NADPH-generating system consisting of 5 mM glucose 6-phosphate and 0.5 U of glucose-6-phosphate dehydrogenase/ml was added and reactions initiated by adding NADP+ to a final concentration of 0.5 mM. Reactions proceeded for 10 min at 37° C. with gentle shaking and then were terminated by addition of 2 ml CH2Cl2.
(§2) Extraction and Gas Chromatography/Mass Spectrometry Analysis of E2 and Metabolites. A deuterated internal standard (100 μl of 8 mg/liter E2-2, 4, 16, 16-d4 in methanol; CDN Isotopes, Pointe-Claire, Quebec) was added and all steroids extracted into CH2Cl2 by vortex mixing for 30 s. 1.5 ml of the CH2Cl2 fraction was evaporated to dryness under air and volatile TMS derivatives prepared by heating the residue with 100 μl of 50% NO-bis(trimethylsilyl)trifluoroacetamide/1% trimethyl chlorosilane in acetonitrile at 56° C. for 30 min. The TMS derivatives of E2 and its metabolites were separated by gas chromatography (H-P 5890, Hewlett-Packard, Wilmington, Del.) on a 5% phenyl methyl silicone stationary phase fused silica capillary column (30 m×0.2 mm×0.5 μm film, HP5; Hewlett-Packard). Helium carrier gas was used at a flow of 1 ml/min. The injector was operated at 250° C., with 2 μl injected in the splitless mode, with a purge (60 ml/min helium) time of 0.6 min. The oven temperature was held at 189° C. for 0.5 min, then raised at 6° C./min to 250° C. where it was held for 17 min, then raised to 300° C. at 8° C./min to give a total run time of 35.42 min. […] The EI mass spectrometer (H-P 5970) was operated in the selected ion monitoring mode from 18 to 34 min. Ions monitored were TMS2-E2-d4 420, 288, 330; TMS2-E2 416, 285, 326; TMS3-2-OH-E2 504, 373; TMS3-4-OH-E2 504, 373, 325; TMS3-16α-OH-E2 345, 311, 504. The instrument was calibrated by simultaneous preparation of an 11-point calibration over the range […]/tube of each compound. […] Internal standard added prior to extraction compensated for deviation from 100% recovery.
(§3) Statistical Analysis. Kinetic parameters (Km and kcat) were determined by nonlinear regression analysis using the computer program GraphPad PRISM (San Diego, Calif.).

[3] = target: T1, CYP1B1 (Homo sapiens, UniProt Q16678, L432V); assay: Assay of CYP1B1 E2 hydroxylation activity; format: biochemical; conditions: text and FIG. 4; read-out: 2-OH-E2 hydroxylation Km
T1 construct: made in house; host or cells: Escherichia coli DH5αF′Iq
T1 sequence (Q16678 26-543 L432V): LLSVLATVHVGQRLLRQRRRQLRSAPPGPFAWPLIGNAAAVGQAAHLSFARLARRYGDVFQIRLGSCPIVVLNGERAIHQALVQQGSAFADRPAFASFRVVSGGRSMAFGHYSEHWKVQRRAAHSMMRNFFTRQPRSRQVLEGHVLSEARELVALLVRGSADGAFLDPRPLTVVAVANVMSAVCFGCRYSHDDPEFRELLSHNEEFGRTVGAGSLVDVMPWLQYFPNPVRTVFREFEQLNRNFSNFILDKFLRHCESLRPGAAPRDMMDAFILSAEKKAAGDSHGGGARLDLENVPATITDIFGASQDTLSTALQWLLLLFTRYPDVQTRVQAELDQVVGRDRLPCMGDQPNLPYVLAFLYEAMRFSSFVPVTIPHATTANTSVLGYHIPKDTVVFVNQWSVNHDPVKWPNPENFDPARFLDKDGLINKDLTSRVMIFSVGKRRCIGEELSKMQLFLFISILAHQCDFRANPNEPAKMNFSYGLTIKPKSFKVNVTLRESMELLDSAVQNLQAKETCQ
Protocol: as §1, §2, §3

Row | Molecule | levels of depurinating DNA adducts versus E2-2,3Q and E1-2,3Q [1] | 2-OH-Estradiol kcat [2] [s⁻¹] | 2-OH-Estradiol kcat ([2]; listed as Wild type CYP1B1) [s⁻¹] | 2-OH-Estradiol kcat ([2]; listed as wild type CYP1B1) [s⁻¹] | 4-OH-Estradiol kcat [2] [s⁻¹] | 4-OH-Estradiol kcat ([2]; listed as Wild type CYP1B1) [s⁻¹] | 4-OH-Estradiol kcat ([2]; listed as wild type CYP1B1) [s⁻¹] | 16a-OH-Esrradiol kcat [2] [s⁻¹] | 16a-OH-Esrradiol kcat ([2]; listed as Wild type CYP1B1) [s⁻¹] | 16a-OH-Esrradiol kcat ([2]; listed as wild type CYP1B1) [s⁻¹] | Km [3] [µM]
1 | C[C@]12CC[C@@H]3C4=C(CC[C@H]3[C@@H]1CCC2=O)C(=O)C(=O)C=C4 [E1-3,4Q] | two to three orders of magnitude higher |  |  |  |  |  |  |  |  |  | 
2 | C[C@]12CC[C@@H]3C4=C(CC[C@H]3[C@@H]1CC[C@@H]2O)C(=O)C(=O)C=C4 [E2-3,4Q] | two to three orders of magnitude higher |  |  |  |  |  |  |  |  |  | 
3 | B1 |  | 0.0317 ± 0.0017 | 0.0317 ± 0.0017 | 0.0317 ± 0.0017 | 0.0733 ± 0.0067 | 0.0733 ± 0.0067 | 0.0733 ± 0.0067 | 0.005 ± 0.00033 | 0.005 ± 0.00033 | 0.005 ± 0.00033 | 34 ± 4
